The text below walks through data of patent US20180134765A1 (AVIDBIOTICS, published 2018).

For test [1], the target named is T1, human NKG2D-Fc (human, UniProt P26718 78-216, limits assumed).
T1 construct: also called natural NKG2D-Fc; not shown: Fc part
T1 sequence (looked up): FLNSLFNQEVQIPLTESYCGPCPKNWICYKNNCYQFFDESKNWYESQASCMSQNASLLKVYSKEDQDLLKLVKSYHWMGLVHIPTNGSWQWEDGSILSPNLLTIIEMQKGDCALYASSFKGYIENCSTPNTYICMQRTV
In words: ELISA: protein captured on FGFR3 detected with NKG2D-Fc.

In test [2] the target is T2, FGFR3 (plate-coated) (UniProt P22607 23-375).
T2 construct: also called Fibroblast Growth Factor Receptor 3
T2 sequence (looked up): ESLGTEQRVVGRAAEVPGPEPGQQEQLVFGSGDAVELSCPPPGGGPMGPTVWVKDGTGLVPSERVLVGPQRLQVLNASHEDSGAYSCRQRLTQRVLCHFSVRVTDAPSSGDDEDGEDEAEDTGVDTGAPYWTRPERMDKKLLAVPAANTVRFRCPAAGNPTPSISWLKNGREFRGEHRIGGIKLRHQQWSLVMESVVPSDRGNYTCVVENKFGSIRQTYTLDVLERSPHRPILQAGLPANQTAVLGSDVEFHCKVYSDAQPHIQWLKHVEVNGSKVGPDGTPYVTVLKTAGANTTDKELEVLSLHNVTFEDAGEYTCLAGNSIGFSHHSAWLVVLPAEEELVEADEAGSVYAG
In words: ELISA: FGFR3 coated at 2 ug/ml, protein titrated, bound protein detected with NKG2D-Fc and anti-Fc-HRP.

Test [3] concerns the target T2, FGFR3 (plate-coated). Described as above. The source holds these as a separate data set.
For test [4], the target named is T3, biotinylated human NKG2D (Example 3) (human, UniProt P26718 78-216, limits assumed, biotinylated (site not stated)).
T3 construct: also called recombinant biotinylated NKG2D; surface coated biotinylated human NKG2D
T3 sequence (looked up): T1 sequence (looked up)
Put plainly: biolayer interferometry (Octet), Kd = kOFF/kON.

In test [5] the target is T3, biotinylated human NKG2D (Example 3). In words: biolayer interferometry (Octet), biotinylated human NKG2D on the surface, 100 nM analyte.
The target in test [6] is T2, FGFR3 (plate-coated). In words: ELISA on FGFR3-coated wells after 1 h at 70 C and 1 h at room temperature.
Test [7] has as its target T2, FGFR3 (plate-coated). Put plainly: ELISA on FGFR3-coated wells after 1 h at 80 C and 1 h at room temperature.
Test [8] addresses T1, human NKG2D-Fc. In words: phage ELISA: phage-displayed ULBP3 α1-α2 variant titrated against NKG2D (the legend gives no form; Example 5 selected on human NKG2D-Fc).
Test [9] concerns the target T1, human NKG2D-Fc. In words: phage ELISA: phage-displayed ULBP2 α1-α2 variant titrated against NKG2D (the legend gives no form; Example 5 selected on human NKG2D-Fc).
The next test addresses T4, Y152A NKG2D-Fc (human, UniProt P26718 78-216).
T4 construct: Biotinylated for the phage selections; also called non-natural Y152A NKG2D; not shown: Fc part; not described
T4 sequence (looked up): T1 sequence (looked up) with Y75A
In words: phage ELISA: phage clone titrated against Y152A NKG2D.

Substitutions are numbered along the chain they refer to. In names and notes the source's numbering stands.

B1: ULBP2-α3-iFv.2 (designed binder)
chain: EPHSLCYDITVIPKFRPGPRWCAVQGQVDEKTFLHYDCGNKTVTPVSPLGKKLNVTTAWKAQNPVLREVVDILTEQLRDIQLENYTPKEPLTLQARMSCEQKAEGHSSGSWQFSFDGQIFLLFDSEKRMWTTVHPGARKMKEKWENDKVVAMSFHYFSMGDCIGWLEDFLMGMDSTLEPSAGAPPMVQVTRSEASGGSGDRVTITCRASQDVSTAVAWYQQKPGKAPKLLIYSASFLYSGVPSRFSGSGSGTDFTLTISSLQPEDFATYYCQQSYTTPPTFGQGTKVEIKGGSSRSSSSGGGGSGGGGEVQLVESGGGLVQPGGSLRLSCAASGFTFTSTGISWVRQAPGKGLEWVGRIYPTNGSTNYADSVKGRFTISADTSKNTAYLQMNSLRAEDTAVYYCARTYGIYDLYVDYTEYVMDYWGQGTLVTVSSGGSSRSSSSGGGGSGGGGDIQMTQSPSSLSASGGSGQITVTCRASGFYPWNITLSWRQDGVSLSHDTQQWGDVLPDGQGTYQTWVATRISQGEEQRFTCYMEHSGQHSTHPVPSGKGSHHHHHH
notes: His-tagged, monomeric, insect cells; also called NKG2DL-α3-iFv.2 (ULBP2)
Take B1: in the test with human NKG2D-Fc [1], the binding result is on record as “binds”. In addition, in the test with FGFR3 (plate-coated) [2], the “EC50 (read off the curve)” value is around 2 nM.

B2: MICA-α3-iFv.1 (designed binder)
chain: EPHSLRYNLTVLSWDGSVQSGFLTEVHLDGQPFLRCDRQKCRAKPQGQWAEDVLGNKTWDRETRDLTGNGKDLRMTLAHIKDQKEGLHSLQEIRVCEIHEDNSTRSSQHFYYDGELFLSQNLETKEWTMPQSSRAQTLAMNVRNFLKEDAMKTKTHYHAMHADCLQELRRYLKSGVVLRRTVPPMVQVTRSEASGDRVTITCRASQDVSTAVAWYQQKPGKAPKLLIYSASFLYSGVPSRFSGSGSGTDFTLTISSLQPEDFATYYCQQSYTTPPTFGQGTKVEIKGGSSRSSSSGGGGSGGGGEVQLVESGGGLVQPGGSLRLSCAASGFTFTSTGISWVRQAPGKGLEWVGRIYPTNGSTNYADSVKGRFTISADTSKNTAYLQMNSLRAEDTAVYYCARTYGIYDLYVDYTEYVMDYWGQGTLVTVSSGGSSRSSSSGGGGSGGGGDIQMTQSPSSLSASGQITVTCRASGFYPWNITLSWRQDGVSLSHDTQQWGDVLPDGQGTYQTWVATRISQGEEQRFTCYMEHSGQHSTHPVPSGKGSHHHHHH
notes: His-tagged, monomeric, made in insect cells; also called sMICA-α3-iFv.1
Take B2: in the test with human NKG2D-Fc [1], the binding result was “binds”. In the test with FGFR3 (plate-coated) [3], the “EC50 (read off the curve)” value was around 1 nM.

B3: WED-MICA (ligand)
chain: EPHSLRYNLTVLSWDGSVQSGFLTEVHLDGQPFLRCDRQKCRAKPQGQWAEDVLGNKTWDRETRDLTGWGKDLRMTLAHIKDQKEGLHSLQEIRVCEIHEDNSTRSSQHFYYDGELFLSQNLETKEWTMPQSSRAQTLAMNVRNFLKEDAMETDTHYHAMHADCLQELRRYLKSGVVLRRTVPPMVQVTRSEASGGSGDRVTITCRASQDVSTAVAWYQQKPGKAPKLLIYSASFLYSGVPSRFSGSGSGTDFTLTISSLQPEDFATYYCQQSYTTPPTFGQGTKVEIKGGSSRSSSSGGGGSGGGGEVQLVESGGGLVQPGGSLRLSCAASGFTFTSTGISWVRQAPGKGLEWVGRIYPTNGSTNYADSVKGRFTISADTSKNTAYLQMNSLRAEDTAVYYCARTYGIYDLYVDYTEYVMDYWGQGTLVTVSSGGSSRSSSSGGGGSGGGGDIQMTQSPSSLSASGGSGQITVTCRASGFYPWNITLSWRQDGVSLSHDTQQWGDVLPDGQGTYQTWVATRISQGEEQRFTCYMEHSGQHSTHPVPSGKGSHHHHHH
notes: also called WED-α1-α2 domains; WED soluble MICA protein
Take B3: in test [4], the “apparent Kd (pooled screen)” value came out at 5.9 nM. In test [5], the “apparent koff (pooled screen)” value stood at 0.0017 s⁻¹ and the “apparent kon (pooled screen)” value came out at 290000 M⁻¹ s⁻¹.

B4: MICA-α3-iFv.2 (designed binder)
chain: B3 chain with W69N, E152K, D154K
notes: His-tagged, monomeric, made in insect cells; also called sMICA-α3-iFv.2
Consider B4, for which the “EC50 (read off the curve)” value in the test with FGFR3 (plate-coated) [6] is around 5 nM; in the test with FGFR3 (plate-coated) [7] it was around 5 nM; with FGFR3 (plate-coated) [3], around 2 nM.

B5: ULBP3 R162G α1-α2 domain (phage-displayed library parent) (ligand)
chain: AAEPHSLWYNFTIIHLPRHGQQWCEVQSQVDQKNFLSYDCGSDKVLSMGHLEEQLYATDAWGKQLEMLREVGQRLRLELADTELEDFTPSGPLTLQVRMSCESEADGYIRGSWQFSFDGRKFLLFDSNNRKWTVVHAGARRMKEKWEKDSGLTTFFKMVSMGDCKSWLRDFLMHRKKRLEPTAP
Consider B5, for which the binding result with human NKG2D-Fc [8] was “binds”.

B6: V151D (ligand)
α1-α2 domain, fused to pIII of M13 phage: AAEPHSLSYDITVIPKFRPGPRWCAVQGQVDEKTFLHYDCGNKTVTPVSPLGKKLNVTTAWKAQNPVLREVVDILTEQLRDIQLENYTPKEPLTLQARMSCEQKAEGHSSGSWQFSFDGQIFLLFDSEKRMWTTVHPGARKMKEKWENDKDVAMSFHYFSMGDCIGWLEDFLMGMDSTLEPSAGAP
For B6, in the test with human NKG2D-Fc [9], the “EC50 (read off the curve)” value is ~0.01 OD268 (phage).

B7: MICA25.17 (ligand)
chain: EPHSLRYNLTVLSWDGSVQSGFLTEVHLDGQPFLRCDRQKCRAKPQGQWAEDVLGNKTWDRETRDLTGWGTTLLMTLAHIKDQKEGLHSLQEIRVCEIHEDNSTRSSQHFYYDGELFLSQNLETLEWTMPQSSRAQTLAMNVRNFLKEDAMETDIGYRLMRADCLSELRRYLKSGVVLRRTV
notes: Tested as phage clone (M13 pIII fusion)
As to B7, the “EC50 (read off the curve)” value in the test with Y152A NKG2D-Fc was around 0.005 phage OD.

B8: MICA25.18 (ligand)
chain: B7 chain with T72F, L74R, I155R, G156S, Y157G, R158L
notes: as for B7
For the molecule B8, in the test with Y152A NKG2D-Fc, the “EC50 (read off the curve)” value is around 0.01 phage OD.
